Results reported in the supplement of paper PMC6757056.
± gives the standard deviation of the averaged measurements.

B1: library; a variant is named by its letters at N, in order (parent)
chain: GCUGUCACCGAGAAACUGUGAAGUAUAUCUUAAACCUGGGCACUUAAAAGAUAUAUGGAGUUAGUAGUGCAACCUGCUCGGUCUGAUGAGUCCNNNNNNGGACGAAACAGC

Columns and labels:
cyclic di-GMP [1] = variants of: B1; assay: normalized RNA/DNA level without ligand (relative to sTRSVctl = 100) (log10 (% of sTRSVctl)); HEK293T; ligand: cyclic di-GMP (c-di-GMP-II aptamer); higher = less ribozyme self-cleavage, higher mRNA level; conditions: reporter: mCherry (pCS4076), ligand present: no
In short: (§1)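 Total RNA, extracted with EDTA 72 h after HEK293T cells were transfected with 4 µg per 6-well well of reporter-linked ribozyme switch library plasmids, was reverse-transcribed, amplified, barcoded and sequenced. Ligand, if used, was added 1 h before transfection. RNA level was derived from RNA reads divided by DNA reads and normalized to a spiked-in non-cleaving sequence or to the top sequences. This was multiplied by 100 and log10-transformed, with the top set of 25 sequences and a ≥100 DNA read minimum.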

cyclic di-GMP [2] = variants of: B1; assay: normalized RNA/DNA level with ligand (relative to sTRSVctl = 100) (log10 (% of sTRSVctl)); HEK293T; ligand: cyclic di-GMP (c-di-GMP-II aptamer); ligand concentration (+) RNA-Seq: 1 mM; higher = less ribozyme self-cleavage, higher mRNA level; conditions: reporter: mCherry (pCS4076), ligand present: yes
In short: as §1

Variant	normalized RNA/DNA level without ligand (log10) (cyclic di-GMP [1])	normalized RNA/DNA level with ligand (log10) (cyclic di-GMP [2])
ACGUCG	1.605 ± 0.011	1.81 ± 0.12
ACGGAC	1.52 ± 0.075	1.73 ± 0.09
AAGUAG	1.68 ± 0.024	1.77 ± 0.12
UUGCUU	1.727 ± 0.0027	1.88 ± 0.12
AGACUU	1.679 ± 0.0077	1.84 ± 0.13
ACCUUG	1.7 ± 0.065	1.81 ± 0.063
ACCUCU	1.716 ± 0.0081	1.87 ± 0.1
ACCUCA	1.62 ± 0.027	1.77 ± 0.12
CAGAGA	1.41 ± 0.064	1.64 ± 0.13
GGCCCA	1.8 ± 0.035	1.88 ± 0.082
UCGAAU	1.45 ± 0.1	1.69 ± 0.059
UUAGGA	1.57 ± 0.079	1.76 ± 0.089
CUCCCA	1.718 ± 0.0069	1.87 ± 0.052
CUCCCC	1.82 ± 0.032	1.9 ± 0.089
CCAGAG	1.42 ± 0.049	1.62 ± 0.17
AGCCAU	1.718 ± 0.0054	1.8 ± 0.11
AGCGGG	1.76 ± 0.043	1.9 ± 0.083
UUUGGA	1.65 ± 0.051	1.79 ± 0.085
GCCGGC	1.56 ± 0.035	1.74 ± 0.2
CUGGGG	1.648 ± 0.0018	1.83 ± 0.19
AGAUCC	1.81 ± 0.016	1.89 ± 0.038
CUGCGU	1.723 ± 0.013	1.84 ± 0.1
UGCCGC	1.774 ± 0.015	1.9 ± 0.049

Variant	normalized RNA/DNA level without ligand (log10) (cyclic di-GMP [1])	normalized RNA/DNA level with ligand (log10) (cyclic di-GMP [2])
UCCCCC	1.83 ± 0.088	1.92 ± 0.13
AUCGAC	1.631 ± 0.012	1.8 ± 0.075
GAAGAG	1.5 ± 0.14	1.71 ± 0.094
CACGUA	1.504 ± 0.014	1.7 ± 0.056
UGUUUU	1.71 ± 0.032	1.86 ± 0.11
CGGAGA	1.32 ± 0.11	1.55 ± 0.13
CUUGUC	1.78 ± 0.048	1.89 ± 0.12
AACCAC	1.668 ± 0.0054	1.81 ± 0.11
GGUCAA	1.4 ± 0.095	1.64 ± 0.092
GAGCUU	1.8 ± 0.045	1.9 ± 0.14
CCAGUG	1.27 ± 0.14	1.48 ± 0.06
UUCGGG	1.774 ± 0.011	1.9 ± 0.13
UUCGGU	1.75 ± 0.029	1.87 ± 0.056
AUUCUA	1.595 ± 0.0027	1.78 ± 0.13
UAUGGG	1.57 ± 0.078	1.73 ± 0.1
UCGCGC	1.73 ± 0.029	1.89 ± 0.093
UUAGAG	1.63 ± 0.0024	1.76 ± 0.047
AUAACC	1.75 ± 0.072	1.83 ± 0.1
CAGCCU	1.59 ± 0.055	1.79 ± 0.12
UUUGAU	1.649 ± 0.014	1.82 ± 0.12
GUAGGU	1.6 ± 0.028	1.8 ± 0.1
GUAGGC	1.6 ± 0.064	1.78 ± 0.048
UCCCAU	1.71 ± 0.02	1.85 ± 0.16

Variant	normalized RNA/DNA level without ligand (log10) (cyclic di-GMP [1])	normalized RNA/DNA level with ligand (log10) (cyclic di-GMP [2])
UCCCAG	1.79 ± 0.048	1.9 ± 0.089
CAUACU	1.51 ± 0.044	1.7 ± 0.12
UGGUCA	1.78 ± 0.061	1.89 ± 0.067
CAGGCG	1.75 ± 0.091	1.88 ± 0.13
CACAAC	1.59 ± 0.028	1.77 ± 0.085
AAUCUA	1.55 ± 0.055	1.75 ± 0.071
AAUCUU	1.74 ± 0.09	1.86 ± 0.1
GUGACG	1.66 ± 0.021	1.77 ± 0.11
GUGGAG	1.61 ± 0.059	1.71 ± 0.092
CAGCGA	1.49 ± 0.1	1.7 ± 0.055
UGCGGA	1.559 ± 0.0066	1.78 ± 0.12
AGUCAG	1.571 ± 0.011	1.73 ± 0.16
AGUCAU	1.69 ± 0.071	1.85 ± 0.13
CGGGCG	1.83 ± 0.066	1.94 ± 0.092
CGUAUC	1.58 ± 0.045	1.76 ± 0.098
UUUAUC	1.74 ± 0.056	1.83 ± 0.12
GUUGUA	1.57 ± 0.024	1.77 ± 0.1
UAAUCA	1.756 ± 0.0092	1.87 ± 0.072
UCAGAA	1.35 ± 0.17	1.65 ± 0.14
GCUCCG	1.79 ± 0.028	1.92 ± 0.13
ACUUUG	1.59 ± 0.037	1.76 ± 0.12
UAUCAG	1.72 ± 0.028	1.84 ± 0.13
UCCACC	1.635 ± 0.0036	1.8 ± 0.12

Variant	normalized RNA/DNA level without ligand (log10) (cyclic di-GMP [1])	normalized RNA/DNA level with ligand (log10) (cyclic di-GMP [2])
CUCGCA	1.66 ± 0.047	1.81 ± 0.14
CUCGCC	1.784 ± 0.0038	1.86 ± 0.095
UAUUUA	1.707 ± 0.0067	1.84 ± 0.12
UGCCUU	1.725 ± 0.0025	1.87 ± 0.082
GUUGGC	1.61 ± 0.022	1.79 ± 0.09
ACCGGU	1.531 ± 0.003	1.76 ± 0.08
ACCGGA	1.51 ± 0.13	1.71 ± 0.056
UCCUUA	1.65 ± 0.025	1.83 ± 0.15
AAUAUU	1.667 ± 0.015	1.83 ± 0.083
AAUAUC	1.67 ± 0.022	1.81 ± 0.079
AAACGA	1.39 ± 0.15	1.57 ± 0.097
GAGCAA	1.76 ± 0.023	1.83 ± 0.12
GGCUAU	1.66 ± 0.048	1.78 ± 0.021
GGCUAC	1.7 ± 0.023	1.84 ± 0.085
AGCCCU	1.77 ± 0.047	1.88 ± 0.12
AGCCCC	1.81 ± 0.031	1.92 ± 0.12
CGCGCC	1.75 ± 0.025	1.88 ± 0.14
CCUUGG	1.76 ± 0.081	1.9 ± 0.15
UUUAGA	1.716 ± 0.011	1.87 ± 0.086
UGGCUA	1.719 ± 0.003	1.87 ± 0.11
AAAUCU	1.7 ± 0.026	1.82 ± 0.13
CUUUAU	1.58 ± 0.047	1.79 ± 0.11
CUUUAG	1.73 ± 0.095	1.84 ± 0.19

Variant	normalized RNA/DNA level without ligand (log10) (cyclic di-GMP [1])	normalized RNA/DNA level with ligand (log10) (cyclic di-GMP [2])
AACAUU	1.7 ± 0.037	1.84 ± 0.067
AUCUCC	1.806 ± 0.0081	1.9 ± 0.034
AACUUC	1.714 ± 0.0074	1.82 ± 0.095
AGGGUU	1.6902 ± 0.0014	1.77 ± 0.056
UACAAU	1.64 ± 0.017	1.77 ± 0.13
UCCGCG	1.774 ± 0.0088	1.89 ± 0.083
UCAACU	1.707 ± 0.0018	1.86 ± 0.069
UUCUCU	1.8 ± 0.039	1.91 ± 0.11
AACUGC	1.686 ± 0.0067	1.82 ± 0.089
CCGAUC	1.55 ± 0.019	1.73 ± 0.094
CCGAUA	1.31 ± 0.13	1.54 ± 0.075
GCAGGG	1.6 ± 0.05	1.74 ± 0.082
CUUAAC	1.679 ± 0.014	1.8 ± 0.079
CAUGAG	1.714 ± 0.012	1.84 ± 0.074
GUGAAC	1.5 ± 0.08	1.69 ± 0.13
GUAUAC	1.661 ± 0.0097	1.81 ± 0.084
GUAUAU	1.6 ± 0.031	1.75 ± 0.11
GCCUAU	1.662 ± 0.0027	1.85 ± 0.13
UAGACG	1.7073 ± 0.00046	1.87 ± 0.12
UUGGGC	1.72 ± 0.023	1.84 ± 0.091
UAUACA	1.711 ± 0.0027	1.85 ± 0.12
UUCGUA	1.64 ± 0.021	1.82 ± 0.11
CUACUA	1.47 ± 0.14	1.64 ± 0.072
